Experimental data published in patent publication US7041498 (SALK INSTITUTE FOR BIOLOGICAL STUDIES, dated 2006).

B1: VP16 transactivation domain linked to the LBD of mouse PPARα (VP-PPAR155-468) (other)
chain: YCRFHKCLSVGMSHNAIRFGRMPRSEKAKLKAEILTCEHDLKDSETADLKSLGKRIHEAYLKNFNMNKVKARVILAGKTSNNPPFVIHDMETLCMAEKTLVAKMVANGVEDKEAEVRFFHCCQCMSVETVTELTEFAKAIPGFANLDLNDQVTLLKYGVYEAIFTMLSSLMNKDGMLIAYGNGFITREFLKNLRKPFCDIMEPKFDFAMKFNALELDDSDISLFVAAIICCGDRPGLLNIGYIEKLQEGIVHVLKLHLQSNHPDDTFLFPKLLQKMVDLRQLVTEHAQLVQVIKKTESDAALHPLLQEIYRDMY
notes: range 155-468; Two-hybrid prey expressed in CV-1 cells
B2: VP16 transactivation domain linked to the LBD of RARα (VP-RAR156-462) (other)
chain: ESVRNDRNKKKKEVPKPECSESYTLTPEVGELIEKVRKAHQETFPALCQLGKYTTNNSSEQRVSLDIDLWDKFSELSTKCIIKTVEFAKQLPGFTTLTIADQITLLKAACLDILILRICTRYTPEQDTMTFSDGLTLNRTQMHNAGFGPLTDLVFAFANQLLPLEMDDAETGLLSAICLICGDRQDLEQPDRVDMLQEPLLEALKVYVRKRRPSRPHMFPKMLMKITDLRSISAKGAERVITLKMEIPGSMPPLIQEMLENSEGLDTLSGQPGGGGRDGGGLAPPPGSCSPSLSPSSNRSSPATHSP
notes: range 156-462
B3: VP16 transactivation domain linked to the LBD of VDR (VP-VDR92-427) (other)
chain: EFILTDEEVQRKREMILKRKEEEALKDSLRPKLSEEQQRIIAILLDAHHKTYDPTYSDFCQFRPPVRVNDGGGSHPSRPNSRHTPSFSGDSSSSCSDHCITSSDMMDSSSFSNLDLSEEDSDDPSVTLELSQLSMLPHLADLVSYSIQKVIGFAKMIPGFRDLTSEDQIVLLKSSAIEVIMLRSNESFTMDDMSWTCGNQDYKYRVSDVTKAGHSLELIEPLIKFQVGLKKLNLHEEEHVLLMAICIVSPDRPGVQDAALIEAIQDRLSNTLQTYIRCRHPPPGSHLLYAKMIQKLADLRSLNEEHSKQYRCLSFQPECSMKLTPLVLEVFGNEIS
notes: range 92-427

Each binder was assayed against T1, GAL4 linked to the FAR ligand binding domain (GAL4-FAR184-469) (yeast; rat, UniProt P04386 1-147) (assay: mammalian two-hybrid in CV-1 cells, GAL4 UAS luciferase reporter).
T1 construct: range 1-147; Two-hybrid bait expressed in CV-1 cells from a CMV promoter vector; also called GAL4-FAR chimera; FAR LBD
B1: no binding.
B2: no binding.
B3: no binding.
